Assay results: paper PMC9972897 (Science immunology, 2023)

Experiments:
[1] = biological target: SD1-RBD of SARS-CoV-2 S, Alpha (SARS-CoV-2, Alpha (B.1.1.7), strain); test: ELISA; details: both partners purified
[2] = biological target: SD1-RBD of SARS-CoV-2 S, Beta (SARS-CoV-2, Beta (B.1.351), strain); test: ELISA; details: both partners purified
[3] = biological target: SD1-RBD of SARS-CoV-2 S, Gamma (SARS-CoV-2, Gamma (B.1.1.28.1), strain); test: ELISA; details: both partners purified
[4] = biological target: SD1-RBD of SARS-CoV-2 S, Delta (SARS-CoV-2, Delta (B.1.617.2), strain); test: ELISA; details: both partners purified
[5] = biological target: SD1-RBD of SARS-CoV-2 S, Omicron BA.1 (SARS-CoV-2, Omicron BA.1 (B.1.1.529), strain); test: ELISA; details: both partners purified
[6] = biological target: SD1-RBD of SARS-CoV-2 S, Omicron BA.2 (SARS-CoV-2, Omicron BA.2, strain); test: ELISA; details: both partners purified
[7] = biological target: SD1-RBD of SARS-CoV-2 S, Omicron BA.2.75 (SARS-CoV-2 Omicron BA.2.75 (GenBank …, strain)); test: ELISA; details: both partners purified
[8] = biological target: SD1-RBD of SARS-CoV-2 S, Omicron BA.4/BA.5 (SARS-CoV-2 Omicron BA.4/BA.5 (GenBank …, strain)); test: ELISA; details: both partners purified
[9] = biological target: SARS-CoV-2 S-2P ectodomain trimer (ancestral) (SARS-CoV-2 (ancestral, MN908947), stabilised); test: SPR; details: both partners purified
[10] = biological target: SARS-CoV-2 S Omicron BA.1, C-terminally truncated, expressed on 293T cells (SARS-CoV-2, Omicron BA.1 (B.1.1.529), strain); test: flow cytometry on cells; details: one partner purified
[11] = biological target: SARS-CoV-2 S Omicron BA.4/BA.5, C-terminally truncated, expressed on 293T cells (SARS-CoV-2, Omicron BA.4/BA.5, strain); test: flow cytometry on cells; details: one partner purified

B1: sd1.040 monoclonal antibody (IgG) (antibody, V domains shown)
VH: QVQLVQSGAEVKKPGASVKVSCKASGYTFTSFYIHWVRQAPGQGLEWMGIIDPSGGSTSYPQKFQGRVTMTRDTSTSTVYMDLSSLRSEDTAVYYCTRDGSAGDNSWFDPWGQGTLVTVSS
VL: not shown
binding result [1]: binds
binding result [2]: binds
binding result [3]: binds
binding result [4]: binds
binding result [5]: binds
binding result [6]: binds
binding result [7]: binds
binding result [8]: binds

B2: sd1.040 Fab (Fab, V domains shown)
VH: B1 VH
VL: not shown
Kd [9]: 0.2 nM

B3: fp.006 monoclonal antibody (IgG) (antibody, V domains shown)
VH: EVQLVESGGGVVQPGGSLRLSCAASGFNFNNYALHWVRQAPGKGLEWVAIISYEARNKKYGVSVMGRFSISRDNSKSIMYLEMNSLRVEDTGVYYCARDLFLSDYDRSGYDPTRGGFDHWGQGTLVTVSS
VL: EIVMTQSPATLSVSPGERATLSCRASQSVSSSLAWYQHRFGQAPRLLISGASTRATGIPGRFSGSGSGTEFTLTISSLQSEDVAVYYCQQYGDWPLVTFGGGTKVEIK
fold increase of binding (gMFI) with soluble ACE2 [10]: 5.3 fold
fold increase of binding (gMFI) with soluble ACE2 [11]: 8.2 fold

B4: hr2.023 monoclonal antibody (IgG) (antibody, V domains shown)
VH: QVQLVQSGAEVKKPGASVKVSCRASENIFSDSYLHWVRQAPGQGLEWMGIITPSGDKTFYAQQFQGRLTMTRDTPTNTLHMDLRGLTSADTAIYYCARQATKGGWDYWGQGTLVTVSS
VL: EIVLTQSPGTLSLSPGESATLSCRASQSVTRNYLAWYQQQPGQAPRLLIYGASNRATGVPDRFSGSGSGTDFTLTISRLEPEDFAVYYCQQYGSSPPTFIFGPGTKVDIK
fold increase of binding (gMFI) with soluble ACE2 [10]: 5.8 fold
fold increase of binding (gMFI) with soluble ACE2 [11]: 5.3 fold

B5: hr2.016 monoclonal antibody (IgG) (antibody, V domains shown)
VH: EVQLLESGGGLVQPGGSLRLSCAASGFMFSKYAMTWVRQTPGKGLEWVSVISGGGGSTYYADSVKGRFTISRDNSKNTLYLQMNSLRAEDTAVYYCAKLLVVFVIDYWGQGALVTVSS
VL: EIVLTQSPGTLSLSPGERATLFCRASQSVSSNLAWYQQKPGRAPRLLISGASSRATGIPDRFSGSGSGTDFTLTISRLEPEDFAVYYCQQYGSSPPTFGQGTKVEIK
fold increase of binding (gMFI) with soluble ACE2 [10]: 4.9 fold
fold increase of binding (gMFI) with soluble ACE2 [11]: 4.6 fold
